Results reported in article PMC10870172, “Single-molecule FRET probes allosteric effects on protein-translocating pore loops of a AAA+ machine” (Biophysical Journal, 2024).
Where a chain is given by its changes, count along the chain named. Names and notes keep the numbering of the source.

B1: κ-casein (natural protein)
chain: not shown
notes: κ-casein (Sigma Aldrich), unlabelled soluble model substrate protein; also called model substrate protein; source: bought: Sigma Aldrich
B2: ClpB (N-terminally truncated, from residue 141) K204T (domain or fragment, Thermus thermophilus, UniProt Q9RA63 141-854, looked up)
chain: VQTEHAESTYNALEQYGIDLTRLAAEGKLDPVIGRDEEIRRVIQILLRRTKNNPVLIGEPGVGTTAIVEGLAQRIVKGDVPEGLKGKRIVSLQMGSLLAGAKYRGEFEERLKAVIQEVVQSQGEVILFIDELHTVVGAGKAEGAVDAGNMLKPALARGELRLIGATTLDEYREIEKDPALERRFQPVYVDEPTVEETISILRGLKEKYEVHHGVRISDSAIIAAATLSHRYITERRLPDKAIDLIDEAAARLRMALESAPEEIDALERKKLQLEIEREALKKEKDPDSQERLKAIEAEIAKLTEEIAKLRAEWEREREILRKLREAQHRLDEVRREIELAERQYDLNRAAELRYGELPKLEAEVEALSEKLRGARFVRLEVTEEDIAEIVSRWTGIPVSKLLEGEREKLLRLEEELHKRVVGQDEAIRAVADAIRRARAGLKDPNRPIGSFLFLGPTGVGKTELAKTLAATLFDTEEAMIRIDMTEYMEKHAVSRLIGAPPGYVGYEEGGQLTEAVRRRPYSVILFDEIEKAHPDVFNILLQILDDGRLTDSHGRTVDFRNTVIILTSNLGSPLILEGLQKGWPYERIRDEVFKVLQQHFRPEFLNRLDEIVVFRPLTKEQIRQIVEIQLSYLRARLAEKRISLELTEAAKDFLAERGYDPVFGARPLRRVIQRELETPLAQKILAGEVKEGDRVQVDVGPAGLVFAVPARVEA
notes: ClpB, Thermus thermophilus, N-terminal domain truncated, starting at residue 141 (Val); numbering as in full-length TT ClpB; also called A1; Walker A1; source: E. coli, purified
B3: Thermus thermophilus ClpB variant with truncated N-terminal domain, starting at residue 141 (Val) (domain or fragment)
chain: not shown
notes: ClpB, Thermus thermophilus, N-terminal domain truncated, starting at residue 141 (Val); numbering as in full-length TT ClpB; no cysteine replacement is printed; Theoretical MW of the hexamer 484.8 kDa (D1:p9); also called wt; dNClpB; source: E. coli, purified
B4: ClpB (N-terminally truncated, from residue 141) S359C-Y646C, labelled with Alexa Fluor 488 and Alexa Fluor 594 (domain or fragment)
chain: not shown
modifications: Alexa Fluor 488 C5 maleimide and Alexa Fluor 594 C5 maleimide on the cysteines at 359 and 646
notes: ClpB, Thermus thermophilus, N-terminal domain truncated, starting at residue 141 (Val); numbering as in full-length TT ClpB; The labelled protomer alone, as mixed 1:100 with unlabelled ClpB (Dm4); also called PL3; PL3 construct S359C-Y646C; source: E. coli, purified, labelled
B5: ClpB (N-terminally truncated, from residue 141) double Walker B mutant E271A/E668A (domain or fragment, Thermus thermophilus, UniProt Q9RA63 141-854, looked up)
chain: B2 chain with T64K, E131A, E528A
notes: ClpB, Thermus thermophilus, N-terminal domain truncated, starting at residue 141 (Val); numbering as in full-length TT ClpB; also called BB; source: E. coli, purified
B6: ClpB (N-terminally truncated, from residue 141) K347A (domain or fragment)
chain: not shown
notes: ClpB, Thermus thermophilus, N-terminal domain truncated, starting at residue 141 (Val); numbering as in full-length TT ClpB; also called hyper; hyperactive mutant; source: E. coli, purified
B7: ClpB (N-terminally truncated, from residue 141) E271A (domain or fragment, Thermus thermophilus, UniProt Q9RA63 141-854, looked up)
chain: B2 chain with T64K, E131A
notes: ClpB, Thermus thermophilus, N-terminal domain truncated, starting at residue 141 (Val); numbering as in full-length TT ClpB; also called B1; Walker B1; source: E. coli, purified
B8: ClpB (N-terminally truncated, from residue 141) E668A (domain or fragment)
chain: not shown
notes: ClpB, Thermus thermophilus, N-terminal domain truncated, starting at residue 141 (Val); numbering as in full-length TT ClpB; also called B2; Walker B2; source: E. coli, purified

How the values were obtained:
[1] = molecular target: T1, PL1 BB: reassembled ClpB hexamer with one Alexa-labelled S236C-S359C E271A/E668A protomer among unlabelled … (Thermus thermophilus, UniProt Q9RA63 141-854; Q9RA63 141-854, S236C | S359C | E271A | E668A | E271A | E668A, Alexa Fluor 488 C5 maleimide and Alexa Fluor 594 C5 maleimide on the cysteines at 236 and 359); assay: other fluorescence titration; single-molecule FRET on freely diffusing reassembled ClpB hexamers (1:100 labeled:unlabeled, ~50 pM labeled, ~5 nM total ClpB), increasing concentrations of unlabeled κ-casein; ratio of the H2MM-derived population of state 1 with and without casein fitted to a simple binding isotherm; 25 mM HEPES, 25 mM KCl, 10 mM MgCl2, 2 mM ATP, 0.01% Tween 20, pH 8, 22°C; details: both partners purified
T1 construct: ClpB, Thermus thermophilus, N-terminal domain truncated, starting at residue 141 (Val); numbering as in full-length TT ClpB; ClpB, Thermus thermophilus, N-terminal domain truncated, starting at residue 141 (Val), unlabelled cysteine-less; With the 1:100 ratio most hexamers hold no labelled protomer; only hexamers with one labelled protomer give the signal; also called PL1 double-Walker B …

[2] = molecular target: T2, PL3 BB: reassembled ClpB hexamer with one Alexa-labelled S359C-Y646C E271A/E668A protomer among unlabelled … (Thermus thermophilus, UniProt Q9RA63 141-854; Q9RA63 141-854, S359C | Y646C | E271A | E668A | E271A | E668A, Alexa Fluor 488 C5 maleimide and Alexa Fluor 594 C5 maleimide on the cysteines at 359 and 646); assay: as above; details: both partners purified
T2 construct: ClpB, Thermus thermophilus, N-terminal domain truncated, starting at residue 141 (Val); numbering as in full-length TT ClpB; ClpB, Thermus thermophilus, N-terminal domain truncated, starting at residue 141 (Val), unlabelled cysteine-less; With the 1:100 ratio most hexamers hold no labelled protomer; only hexamers with one labelled protomer give the signal; also called PL3 double-Walker B …

[3] = molecular target: the molecule itself; assay: native gel or EMSA; native PAGE (6% acrylamide) of 1:100 labeled:unlabeled ClpB samples after the refolding and mixing procedure; stained with Coomassie Blue, panel a also imaged with a Typhoon scanner at 532 nm; run at 4°C, 30 V, 2 mM ATP, 4 mM Mg2+
[4] = molecular target: the molecule itself; assay: native gel or EMSA; native gel (6% acrylamide), stained with Coomassie Blue; run at 4°C, 30 V, 2 mM ATP, 4 mM Mg2+; NativeMark Unstained Protein Standard
[5] = molecular target: B3; assay: native gel or EMSA; native PAGE (6% acrylamide) of 1:100 labeled:unlabeled ClpB samples after the refolding and mixing procedure; stained with Coomassie Blue, panel a also imaged with a Typhoon scanner at 532 nm; run at 4°C, 30 V, 2 mM ATP, 4 mM Mg2+; details: both partners purified

For B1, the Kd [1] was 2000 nM and the Kd [2] was 1600 nM.

B2: binds [3].

B3 was tested, and the “stoichiometry N” value [4] was 6.

B4: binds [5].

B5 was tested, and the “stoichiometry N” value [4] was 6.

B6: binds [3].

B7: binds [3].

B8: binds [3].
